# Data as given in patent publication US11352401.
# Biological target: T1, HLA-A*01 (human)
# T1 construct: MHC monomer made peptide-receptive by UV cleavage of a UV-sensitive ligand; also called peptide-receptive MHC class I monomer
# Assay: UV peptide-exchange ELISA; ++++ = yield >75%
# Description: (§1) Candidate peptides for T cell based therapies according to the present invention were further tested for their MHC binding capacity (affinity). The individual peptide-MHC complexes were produced by UV-ligand exchange, where a UV-sensitive peptide is cleaved upon UV-irradiation, and exchanged with the peptide of interest as analyzed. Only peptide candidates that can effectively bind and stabilize the peptide-receptive MHC molecules prevent dissociation of the MHC complexes. To determine the yield of the exchange reaction, an ELISA was performed based on the detection of the light chain (β2m) of stabilized MHC complexes. The assay was performed as generally described in Rodenko et al. (Rodenko et al., 2006).
# (§2) 96 well MAXISorp plates (NUNC) were coated over night with 2 ug/ml streptavidin in PBS at room temperature, washed 4× and blocked for 1 h at 37° C. in 2% BSA containing blocking buffer. […] Peptide-MHC monomers of the UV-exchange reaction were diluted 100-fold in blocking buffer. Samples were incubated for 1 h at 37° C., washed four times, incubated with 2 ug/ml HRP conjugated anti-β2m for 1h at 37° C., washed again and detected with TMB solution that is stopped with […]. Absorption was measured at 450 nm.
row,peptide exchange yield [%],Binder
1,> 75,DSDESYMEKSLY [DSDESYMEKSLY (SEQ ID NO: 401)]
2,> 75,ETARKFLYY [ETARKFLYY (SEQ ID NO: 404)]
3,> 75,ETEQTKFWDY [ETEQTKFWDY (SEQ ID NO: 406)]
4,> 75,ASEAEMRLFY [ASEAEMRLFY (SEQ ID NO: 394)]
5,> 75,ETEEGIYWRY [ETEEGIYWRY (SEQ ID NO: 405)]
6,> 75,YVGKEHMFY [YVGKEHMFY (SEQ ID NO: 201)]
7,> 75,ASEASRLAHY [ASEASRLAHY (SEQ ID NO: 395)]
8,> 75,ASEITSKGASLY [ASEITSKGASLY (SEQ ID NO: 397)]
9,> 75,ASEFGNHYLY [ASEFGNHYLY (SEQ ID NO: 396)]
10,> 75,ATDIPCLLY [ATDIPCLLY (SEQ ID NO: 399)]

# Biological target: T2, HLA-A*24 (human)
# T2 construct: MHC monomer made peptide-receptive by UV cleavage of a UV-sensitive ligand; also called peptide-receptive MHC class I monomer
# Assay: UV peptide-exchange ELISA; ++++ = yield >75%
# Description: as §1, §2
row,peptide exchange yield [%],Binder
1,> 75,VWSDVTPLNF [VWSDVTPLNF (SEQ ID NO: 10)]
2,> 75,PFLPPAACFF [PFLPPAACFF (SEQ ID NO: 8)]
3,> 75,MYPDLSELLM [MYPDLSELLM (SEQ ID NO: 24)]
4,> 75,NYTLYPITF [NYTLYPITF (SEQ ID NO: 27)]
5,> 75,HYTYILEVF [HYTYILEVF (SEQ ID NO: 13)]
6,> 75,SYNGYVFYL [SYNGYVFYL (SEQ ID NO: 25)]
7,> 75,EFTTVLYNF [EFTTVLYNF (SEQ ID NO: 20)]
8,> 75,KYKDYFPVI [KYKDYFPVI (SEQ ID NO: 6)]
9,> 75,VWSNVTPLKF [VWSNVTPLKF (SEQ ID NO: 2)]
10,> 75,DYIGSVEKW [DYIGSVEKW (SEQ ID NO: 18)]
11,> 75,SYEKVINYL [SYEKVINYL (SEQ ID NO: 4)]
12,> 75,KYALLLQDL [KYALLLQDL (SEQ ID NO: 15)]
13,> 75,KYALLLQEL [KYALLLQEL (SEQ ID NO: 51)]
14,> 75,KFIISDWRF [KFIISDWRF (SEQ ID NO: 23)]
15,> 75,YYSIISHTL [YYSIISHTL (SEQ ID NO: 28)]
16,> 75,KTPTNYYLF [KTPTNYYLF (SEQ ID NO: 26)]
17,> 75,YYSKSVGFMQW [YYSKSVGFMQW (SEQ ID NO: 11)]
18,> 75,RYMKKDYLI [RYMKKDYLI (SEQ ID NO: 5)]
19,> 75,TQPGDWTLF [TQPGDWTLF (SEQ ID NO: 22)]
20,> 75,QYDPTPLTW [QYDPTPLTW (SEQ ID NO: 1)]
